Drawing on patent JP2023550785A, this text covers Kd, koff and kon for two substances.

Assay [1] has as its target SARS-CoV-2 (BetaCoV/Wuhan-Hu-1/2019) prefusion-stabilized spike (S) protein / S ectodomain trimer (SARS-CoV-2 (BetaCoV/Wuhan-Hu-1/2019)) (UniProt P0DTC2). The experiment in a line: SPR (Biacore T200), S ectodomain trimer captured, Fab as analyte. Background: In SPR one partner is held on a chip, and binding of the other changes the refractive index at the surface.
Assay [2] shares this target.

Like-named read-outs stand apart in the source and are kept apart here.

antibody S2P6 (antibody 420 1 1), human monoclonal antibody expressed as recombinant human IgG1, sequence (VH): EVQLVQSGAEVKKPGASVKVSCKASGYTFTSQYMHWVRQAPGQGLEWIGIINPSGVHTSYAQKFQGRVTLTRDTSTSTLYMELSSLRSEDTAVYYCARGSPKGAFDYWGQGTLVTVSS
antibody S2P6 (antibody 420 1 1), human monoclonal antibody expressed as recombinant human IgG1, sequence (VL): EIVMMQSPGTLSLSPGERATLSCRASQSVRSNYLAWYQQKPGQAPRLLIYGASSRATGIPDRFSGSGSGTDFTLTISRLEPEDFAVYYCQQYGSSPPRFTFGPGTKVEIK
S2P6 Fab fragment, sequence (VH): as the sequence (VH) above
S2P6 Fab fragment, sequence (VL): as the sequence (VL) above

As usually defined, the Kd is a measure of binding affinity in units of concentration. A higher Kd goes with lower affinity. S2P6 Fab fragment: in assay [1], the Kd stood at 7 nM.

As a reminder, the koff is the first-order rate constant of dissociation. The term kon denotes a measure of how fast the partners come together. Lower therefore signals slow association. In assay [2], “antibody S2P6 (antibody 420 1 1), human monoclonal antibody expressed as recombinant human IgG1” registered a dissociation constant Kd of less than 0.001 nM, a koff of less than 1e-07 s⁻¹ and an on-rate (kon) of 453000 M⁻¹ s⁻¹.
